Measured values as given in patent US20250340902A1, “GENE THERAPY FOR BVES-RELATED DISORDERS” (OHIO STATE INNOVATION FOUNDATION, priority 2022, published 2025).

Assays:
[1] = target: Transcription elongation factor A protein 3 (Mus musculus) (UniProt P23881); test: anti-HA co-IP from muscle, MS; CTRL 3
[2] = target: Myosin light chain kinase 2, skeletal/cardiac muscle (Mus musculus) (UniProt Q8VCR8); test: anti-HA co-IP from muscle, MS; CTRL 3
Nidogen-2 (Mus musculus) = Nidogen-2 (Mus musculus) (UniProt O88322); test: anti-HA co-IP from muscle, MS; CTRL 3
[3] = target: Cytoplasmic dynein 1 heavy chain 1 (Mus musculus) (UniProt Q9JHU4); test: anti-HA co-IP from muscle, MS; CTRL 3
[4] = target: 3-ketoacyl-CoA thiolase, mitochondrial (Mus musculus) (UniProt Q8BWT1); test: anti-HA co-IP from muscle, MS; CTRL 3
[5] = target: Perilipin-4 (Mus musculus) (UniProt O88492); test: anti-HA co-IP from muscle, MS; CTRL 3
[6] = target: mRNA turnover protein 4 homolog (Mus musculus) (UniProt Q9D0I8); test: anti-HA co-IP from muscle, MS; CTRL 0
[7] = target: Tubulin alpha-1B chain (Mus musculus) (UniProt P05213); test: anti-HA co-IP from muscle, MS; CTRL 0
[8] = target: Patatin-like phospholipase domain-containing protein 7 (Mus musculus) (UniProt A2AJ88); test: anti-HA co-IP from muscle, MS; CTRL 0
[9] = target: Transmembrane protein 201 (Mus musculus) (UniProt A2A8U2); test: anti-HA co-IP from muscle, MS; CTRL 0
[10] = target: Methylcrotonoyl-CoA carboxylase subunit alpha, mitochondrial (Mus musculus) (UniProt Q99MR8); test: anti-HA co-IP from muscle, MS; CTRL 0
[11] = target: Collagen alpha-1(XV) chain (Mus musculus) (UniProt O35206); test: anti-HA co-IP from muscle, MS; CTRL 0
[12] = target: Sulfide:quinone oxidoreductase, mitochondrial (Mus musculus) (UniProt Q9R112); test: anti-HA co-IP from muscle, MS; CTRL 0
[13] = target: Voltage-dependent L-type calcium channel subunit alpha-1s (Mus musculus) (UniProt Q02789); test: anti-HA co-IP from muscle, MS; CTRL 0
Sequence of Voltage-dependent L-type calcium channel subunit alpha-1s (Mus musculus) (Q02789 whole entry): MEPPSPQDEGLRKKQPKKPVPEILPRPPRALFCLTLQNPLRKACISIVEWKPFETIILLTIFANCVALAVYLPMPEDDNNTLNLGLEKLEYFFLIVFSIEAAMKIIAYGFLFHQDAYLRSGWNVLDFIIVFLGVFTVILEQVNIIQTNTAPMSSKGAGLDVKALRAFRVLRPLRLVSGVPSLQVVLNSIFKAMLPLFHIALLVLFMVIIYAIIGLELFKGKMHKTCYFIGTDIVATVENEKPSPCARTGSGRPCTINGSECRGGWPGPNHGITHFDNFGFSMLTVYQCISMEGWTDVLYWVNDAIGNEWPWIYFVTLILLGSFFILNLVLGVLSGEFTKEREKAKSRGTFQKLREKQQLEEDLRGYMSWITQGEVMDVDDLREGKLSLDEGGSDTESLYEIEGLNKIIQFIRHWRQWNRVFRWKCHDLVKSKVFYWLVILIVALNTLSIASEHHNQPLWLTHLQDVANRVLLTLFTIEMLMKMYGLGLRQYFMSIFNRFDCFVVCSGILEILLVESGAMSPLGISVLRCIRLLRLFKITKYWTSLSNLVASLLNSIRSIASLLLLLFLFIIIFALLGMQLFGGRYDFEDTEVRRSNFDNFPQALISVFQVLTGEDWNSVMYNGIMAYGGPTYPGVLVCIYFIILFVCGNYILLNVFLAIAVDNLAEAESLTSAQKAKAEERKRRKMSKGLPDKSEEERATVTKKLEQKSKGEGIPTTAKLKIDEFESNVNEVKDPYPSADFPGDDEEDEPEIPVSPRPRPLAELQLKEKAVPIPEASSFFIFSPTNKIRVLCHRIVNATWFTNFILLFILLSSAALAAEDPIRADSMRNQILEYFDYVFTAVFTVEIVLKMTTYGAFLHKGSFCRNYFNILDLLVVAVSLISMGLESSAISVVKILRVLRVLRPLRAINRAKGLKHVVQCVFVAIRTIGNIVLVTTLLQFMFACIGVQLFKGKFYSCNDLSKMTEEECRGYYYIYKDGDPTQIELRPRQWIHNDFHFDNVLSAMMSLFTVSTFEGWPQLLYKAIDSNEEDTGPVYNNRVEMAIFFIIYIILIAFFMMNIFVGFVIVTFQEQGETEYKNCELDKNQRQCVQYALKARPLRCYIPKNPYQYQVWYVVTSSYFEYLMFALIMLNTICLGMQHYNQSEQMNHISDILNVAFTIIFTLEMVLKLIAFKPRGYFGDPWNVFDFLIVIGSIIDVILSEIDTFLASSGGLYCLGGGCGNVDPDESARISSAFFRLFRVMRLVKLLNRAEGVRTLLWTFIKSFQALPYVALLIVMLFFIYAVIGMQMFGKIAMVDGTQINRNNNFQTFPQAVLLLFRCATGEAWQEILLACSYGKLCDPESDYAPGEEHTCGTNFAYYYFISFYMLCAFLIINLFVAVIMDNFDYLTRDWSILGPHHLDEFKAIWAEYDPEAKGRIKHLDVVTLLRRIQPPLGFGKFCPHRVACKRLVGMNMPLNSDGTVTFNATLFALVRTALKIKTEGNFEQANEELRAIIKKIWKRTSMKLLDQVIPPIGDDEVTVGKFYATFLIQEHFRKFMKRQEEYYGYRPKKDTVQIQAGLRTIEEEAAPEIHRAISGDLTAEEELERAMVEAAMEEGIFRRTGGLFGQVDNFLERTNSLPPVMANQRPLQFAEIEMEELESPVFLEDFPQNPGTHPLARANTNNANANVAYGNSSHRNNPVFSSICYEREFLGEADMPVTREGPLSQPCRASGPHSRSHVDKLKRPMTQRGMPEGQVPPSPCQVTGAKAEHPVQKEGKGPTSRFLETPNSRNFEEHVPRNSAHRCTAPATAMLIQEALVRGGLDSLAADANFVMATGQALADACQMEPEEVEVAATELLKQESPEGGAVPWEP

[14] = target: DNA replication licensing factor MCM2 (Mus musculus) (UniProt P97310); test: anti-HA co-IP from muscle, MS; CTRL 0
[15] = target: Vitamin K-dependent protein C (Mus musculus) (UniProt P33587); test: anti-HA co-IP from muscle, MS; CTRL 0
[16] = target: Chloride channel protein 1 (Mus musculus) (UniProt Q64347); test: anti-HA co-IP from muscle, MS; CTRL 0
[17] = target: Popeye domain-containing protein 3 (Mus musculus) (UniProt Q9ES81); test: anti-HA co-IP from muscle, MS; CTRL 0
[18] = target: Barrier-to-autointegration factor (Mus musculus) (UniProt O54962); test: anti-HA co-IP from muscle, MS; CTRL 0
Sequence of Barrier-to-autointegration factor (Mus musculus) (O54962 whole entry): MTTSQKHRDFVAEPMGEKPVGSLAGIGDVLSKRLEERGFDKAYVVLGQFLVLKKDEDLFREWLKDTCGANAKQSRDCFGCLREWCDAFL

[19] = target: Ferrochelatase, mitochondrial (Mus musculus) (UniProt P22315); test: anti-HA co-IP from muscle, MS; CTRL 0
[20] = target: Long-chain specific acyl-CoA dehydrogenase, mitochondrial (Mus musculus) (UniProt P51174); test: anti-HA co-IP from muscle, MS; CTRL 0
[21] = target: E3 ubiquitin-protein ligase UBR4 (Mus musculus) (UniProt A2AN08); test: anti-HA co-IP from muscle, MS; CTRL 0
[22] = target: EH domain-containing protein 2 (Mus musculus) (UniProt Q8BH64); test: anti-HA co-IP from muscle, MS; CTRL 0
[23] = target: ATP-binding cassette sub-family F member 1 (Mus musculus) (UniProt Q6P542); test: anti-HA co-IP from muscle, MS; CTRL 0
[24] = target: von Willebrand factor A domain-containing protein 8 (Mus musculus) (UniProt Q8CC88); test: anti-HA co-IP from muscle, MS; CTRL 0
[25] = target: Carnitine O-palmitoyltransferase 1, muscle isoform (Mus musculus) (UniProt Q924X2); test: anti-HA co-IP from muscle, MS; CTRL 4
Sequence of Carnitine O-palmitoyltransferase 1, muscle isoform (Mus musculus) (Q924X2 whole entry, canonical isoform): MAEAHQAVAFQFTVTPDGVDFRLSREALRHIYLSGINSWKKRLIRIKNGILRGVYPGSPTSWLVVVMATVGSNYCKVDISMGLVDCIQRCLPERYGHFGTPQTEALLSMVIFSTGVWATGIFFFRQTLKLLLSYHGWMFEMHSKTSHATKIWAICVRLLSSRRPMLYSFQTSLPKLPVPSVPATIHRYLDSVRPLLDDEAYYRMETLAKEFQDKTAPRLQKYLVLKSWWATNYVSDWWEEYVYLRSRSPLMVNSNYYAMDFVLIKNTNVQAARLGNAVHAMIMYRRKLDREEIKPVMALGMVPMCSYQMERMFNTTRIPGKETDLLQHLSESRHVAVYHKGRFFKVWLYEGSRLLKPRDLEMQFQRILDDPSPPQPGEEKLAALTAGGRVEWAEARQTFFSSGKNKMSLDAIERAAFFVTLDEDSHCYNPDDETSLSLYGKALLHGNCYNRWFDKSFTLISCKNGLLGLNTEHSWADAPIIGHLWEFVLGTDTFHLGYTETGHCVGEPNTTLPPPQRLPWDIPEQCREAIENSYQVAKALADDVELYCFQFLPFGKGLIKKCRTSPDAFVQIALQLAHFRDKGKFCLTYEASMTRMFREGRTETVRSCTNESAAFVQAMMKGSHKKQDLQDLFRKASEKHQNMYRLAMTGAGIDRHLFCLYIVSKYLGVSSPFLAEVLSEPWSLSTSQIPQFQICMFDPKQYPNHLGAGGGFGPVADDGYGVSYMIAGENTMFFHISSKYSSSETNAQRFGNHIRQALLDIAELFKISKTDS

[26] = target: MICOS complex subunit Mic60 (Mus musculus) (UniProt Q8CAQ8); test: anti-HA co-IP from muscle, MS; CTRL 4
[27] = target: Trifunctional enzyme subunit beta, mitochondrial (Mus musculus) (UniProt Q99JY0); test: anti-HA co-IP from muscle, MS; CTRL 4
Sequence of Trifunctional enzyme subunit beta, mitochondrial (Mus musculus) (Q99JY0 35-475 limits assumed): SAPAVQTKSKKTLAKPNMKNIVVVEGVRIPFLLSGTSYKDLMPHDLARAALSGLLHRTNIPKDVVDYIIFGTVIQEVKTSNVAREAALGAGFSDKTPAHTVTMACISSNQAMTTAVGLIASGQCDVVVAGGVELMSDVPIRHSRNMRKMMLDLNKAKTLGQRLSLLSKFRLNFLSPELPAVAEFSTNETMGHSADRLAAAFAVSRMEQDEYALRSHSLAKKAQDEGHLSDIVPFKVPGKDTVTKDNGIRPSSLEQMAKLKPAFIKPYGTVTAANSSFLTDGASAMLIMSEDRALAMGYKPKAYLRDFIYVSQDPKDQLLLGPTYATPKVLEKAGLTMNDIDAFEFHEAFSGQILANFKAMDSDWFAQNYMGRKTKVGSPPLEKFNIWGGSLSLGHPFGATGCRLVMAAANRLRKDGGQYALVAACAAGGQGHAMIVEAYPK

[28] = target: Phosphorylase b kinase regulatory subunit beta (Mus musculus) (UniProt Q7TSH2); test: anti-HA co-IP from muscle, MS; CTRL 4
[29] = target: Sodium/potassium-transporting ATPase subunit alpha-2 (Mus musculus) (UniProt Q6PIE5); test: anti-HA co-IP from muscle, MS; CTRL 6
[30] = target: Dystrophin (Mus musculus) (UniProt P11531); test: anti-HA co-IP from muscle, MS; CTRL 6
[31] = target: Phosphorylase b kinase regulatory subunit alpha, skeletal muscle isoform (Mus musculus) (UniProt P18826); test: anti-HA co-IP from muscle, MS; CTRL 5
Biglycan (Mus musculus) = Biglycan (Mus musculus) (UniProt P28653); test: anti-HA co-IP from muscle, MS; CTRL 5
[32] = target: Striated muscle-specific serine/threonine-protein kinase (Mus musculus) (UniProt Q62407); test: anti-HA co-IP from muscle, MS; CTRL 5
[33] = target: Spectrin beta chain, non-erythrocytic 1 (Mus musculus) (UniProt Q62261); test: anti-HA co-IP from muscle, MS; CTRL 5
[34] = target: Spectrin alpha chain, non-erythrocytic 1 (Mus musculus) (UniProt P16546); test: anti-HA co-IP from muscle, MS; CTRL 5
[35] = target: Annexin A6 (Mus musculus) (UniProt P14824); test: anti-HA co-IP from muscle, MS; CTRL 5
Sequence of Annexin A6 (Mus musculus) (P14824 2-673 limits assumed): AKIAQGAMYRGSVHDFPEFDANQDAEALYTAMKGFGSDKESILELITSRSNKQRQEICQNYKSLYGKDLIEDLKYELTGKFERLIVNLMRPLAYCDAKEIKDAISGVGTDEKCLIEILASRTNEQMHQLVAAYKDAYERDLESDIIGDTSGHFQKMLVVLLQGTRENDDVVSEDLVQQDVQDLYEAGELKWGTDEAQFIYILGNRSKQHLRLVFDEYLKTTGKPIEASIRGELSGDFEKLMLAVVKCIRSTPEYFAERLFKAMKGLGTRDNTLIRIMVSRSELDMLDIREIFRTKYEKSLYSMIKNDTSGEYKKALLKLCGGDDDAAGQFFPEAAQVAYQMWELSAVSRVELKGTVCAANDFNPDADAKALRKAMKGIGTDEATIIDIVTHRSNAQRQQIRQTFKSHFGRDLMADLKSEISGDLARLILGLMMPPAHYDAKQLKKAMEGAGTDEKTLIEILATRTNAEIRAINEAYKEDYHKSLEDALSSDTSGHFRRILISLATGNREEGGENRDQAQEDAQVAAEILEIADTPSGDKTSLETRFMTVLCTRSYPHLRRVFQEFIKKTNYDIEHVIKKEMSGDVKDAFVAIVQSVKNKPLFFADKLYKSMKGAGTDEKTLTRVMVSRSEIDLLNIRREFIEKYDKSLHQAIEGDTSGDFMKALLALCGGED

[36] = target: Eukaryotic translation initiation factor 5B (Mus musculus) (UniProt Q05D44); test: anti-HA co-IP from muscle, MS; CTRL 5
Sequence of Eukaryotic translation initiation factor 5B (Mus musculus) (Q05D44 whole entry): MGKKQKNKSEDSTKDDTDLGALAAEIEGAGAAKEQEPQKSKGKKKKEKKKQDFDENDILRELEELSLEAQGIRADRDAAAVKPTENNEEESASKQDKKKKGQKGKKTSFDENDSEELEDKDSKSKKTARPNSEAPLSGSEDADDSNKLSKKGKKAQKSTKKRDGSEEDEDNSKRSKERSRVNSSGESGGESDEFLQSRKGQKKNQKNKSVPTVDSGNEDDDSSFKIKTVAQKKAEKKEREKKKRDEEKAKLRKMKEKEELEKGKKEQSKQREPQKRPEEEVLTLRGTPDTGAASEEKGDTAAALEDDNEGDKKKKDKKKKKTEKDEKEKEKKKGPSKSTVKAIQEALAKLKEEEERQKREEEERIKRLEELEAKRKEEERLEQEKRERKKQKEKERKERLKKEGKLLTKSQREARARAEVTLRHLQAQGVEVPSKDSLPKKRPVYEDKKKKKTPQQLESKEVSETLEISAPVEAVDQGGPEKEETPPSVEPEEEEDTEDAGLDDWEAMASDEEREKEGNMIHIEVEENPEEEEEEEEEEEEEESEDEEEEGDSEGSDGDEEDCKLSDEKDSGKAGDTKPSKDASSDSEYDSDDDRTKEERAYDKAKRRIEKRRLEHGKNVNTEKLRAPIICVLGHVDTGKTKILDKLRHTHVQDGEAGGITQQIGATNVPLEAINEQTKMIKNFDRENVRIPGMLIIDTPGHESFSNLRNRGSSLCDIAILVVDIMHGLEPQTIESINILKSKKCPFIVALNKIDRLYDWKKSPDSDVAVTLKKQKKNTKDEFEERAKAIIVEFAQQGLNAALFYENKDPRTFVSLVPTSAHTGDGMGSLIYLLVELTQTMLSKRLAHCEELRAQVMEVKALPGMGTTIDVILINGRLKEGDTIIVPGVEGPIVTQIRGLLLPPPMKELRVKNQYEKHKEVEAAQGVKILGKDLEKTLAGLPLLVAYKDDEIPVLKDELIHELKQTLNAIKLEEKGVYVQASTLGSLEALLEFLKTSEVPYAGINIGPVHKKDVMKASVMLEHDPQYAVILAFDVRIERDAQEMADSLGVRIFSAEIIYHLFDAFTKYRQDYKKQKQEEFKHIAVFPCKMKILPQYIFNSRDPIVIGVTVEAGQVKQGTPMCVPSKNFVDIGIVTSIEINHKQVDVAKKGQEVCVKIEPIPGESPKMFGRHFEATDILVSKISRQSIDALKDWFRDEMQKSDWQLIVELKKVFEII

AAV9-BVES-HA (IP-MS count) [1]: 12 | AAV9-BVES-HA (IP-MS count) [2]: 9 | AAV9-BVES-HA (IP-MS count) (Nidogen-2 (Mus musculus)): 12 | AAV9-BVES-HA (IP-MS count) [3]: 12 | AAV9-BVES-HA (IP-MS count) [4]: 9 | AAV9-BVES-HA (IP-MS count) [5]: 11 | AAV9-BVES-HA (IP-MS count) [6]: 2 | AAV9-BVES-HA (IP-MS count) [7]: 13 | AAV9-BVES-HA (IP-MS count) [8]: 2 | AAV9-BVES-HA (IP-MS count) [9]: 2 | AAV9-BVES-HA (IP-MS count) [10]: 3 | AAV9-BVES-HA (IP-MS count) [11]: 7 | AAV9-BVES-HA (IP-MS count) [12]: 3 | AAV9-BVES-HA (IP-MS count) [13]: 13 | AAV9-BVES-HA (IP-MS count) [14]: 4 | AAV9-BVES-HA (IP-MS count) [15]: 2 | AAV9-BVES-HA (IP-MS count) [16]: 13 | AAV9-BVES-HA (IP-MS count) [17]: 5 | AAV9-BVES-HA (IP-MS count) [18]: 3 | AAV9-BVES-HA (IP-MS count) [19]: 2 | AAV9-BVES-HA (IP-MS count) [20]: 4 | AAV9-BVES-HA (IP-MS count) [21]: 4 | AAV9-BVES-HA (IP-MS count) [22]: 6 | AAV9-BVES-HA (IP-MS count) [23]: 4 | AAV9-BVES-HA (IP-MS count) [24]: 4 | AAV9-BVES-HA (IP-MS count) [25]: 24 | AAV9-BVES-HA (IP-MS count) [26]: 15 | AAV9-BVES-HA (IP-MS count) [27]: 13 | AAV9-BVES-HA (IP-MS count) [28]: 18 | AAV9-BVES-HA (IP-MS count) [29]: 41 | AAV9-BVES-HA (IP-MS count) [30]: 77 | AAV9-BVES-HA (IP-MS count) [31]: 23 | AAV9-BVES-HA (IP-MS count) (Biglycan (Mus musculus)): 16 | AAV9-BVES-HA (IP-MS count) [32]: 16 | AAV9-BVES-HA (IP-MS count) [33]: 19 | AAV9-BVES-HA (IP-MS count) [34]: 24 | AAV9-BVES-HA (IP-MS count) [35]: 17 | AAV9-BVES-HA (IP-MS count) [36]: 14
Substance: human BVES fused with 3xHA tag (from UniProt Q8NE79 1-360)
